In a protein production outcome set (Wang et al. 2014):

Experiment: label from the status in PepcDB records

Sequence	protein production
MKVKKYDQFNESCYQAQLDNGLTVTLLPKAGYHKTYATFTTNYGSIDNTFVPAGSTEMQRFPDGIAHFLEHKMFEKADHDAFQIFGQYGASANAFTSFTKTSYLFSATRHLQDNLMTLLDFVQDPYFTPATVDKEKGIIGQEIEMYDDDPSWRLYFGMIGNLYPNHPLQYDIAGTTESIAKITADDLYAAYRTFYHPENMTLFVVGNFDPDEVLGWITTNQATKKFAAFQPIERKIPETATDGHDIIPYRTIDMPVNRAKSIVGVKGLLPIEAGAAALKYRAAVNVLLELLFGDTSADYLRLYDQGIIDDTFGYDFELQSGFNFVTFSGETDDPAQFDAAIIDVLENWRTAVVGQEAALALVKKEMIGRVVFMANSLEAIANRYDQRLFGTATIFDEPGIIDQLTLADLQTVAEQLLTSQAISEYQIRPQAKS	failed
MKVKSPLEVYNYLPRTNCGECGFDTCMSFAAHILDRSVTPLDCKPLVRDAEKDPKVKKKLEELLELTAPEIAEVVIGVGENAVKIGGEEVLHRHELTFFNPTGFFYDVWDTMDDKALEERCDRVVSYKKFYVGNFLTLDGFAVRCTSGDPKRYREVVKKVASYGKPLILVALDSECMKAALEEVADQRPLMYAATEGNWKEFLKLALEYKVPVTLRAKDLDLLKSMAVTFKQAGVKDIVLDPVTEPLGEGLKGTFERVIQLRRTAIAGQDKDVAYPIMITPIAAWLIEGDDVTKSYWEAVIASIFIVKYGDVMIFRSIDQHVVMPTITLRFNIYTDPRTPVQVEPGLRAINDPGPDDPVFITTNFALTYYTVESDLTSGGIKGWLLVLNTEGLGVEVSVAGGQFTASKVKELIEETKIEEKVNHRYLVIPGLAARLQGAIEDETGWKVLVGPMDSGRIKGWLEKNWPPKE	not failed
MKVLGISCSPRPGQTTDRLVQEVLNNIEAPTEFVSLSGRRIGPCLGCLGCVADNVCKVRDDMGELRPLIVEADALVIGAPNYFGMLNGLAHCFLERLYQFRHQEGGALHGKLGVAVGVGSAMPDSAVRDIEKFFSFSRIEPVGNVTAIGPASCFNCGHGEECREGAIHRVFGPGTKITADLTPNLSKQPDSLTAARTLGEKLTQRLKQG	failed
MKVLGYGREKKVILEAPNYDNDCVLANILAAHYLSSFDPVRARSYALAAESRLGKATLYEKAVFEAVSYLLSENMDDDVALELHSKLLKKFPKDLLSWKRVETLCSYMGRHDLSLPLFRKILPQNEGQVYVNGMLAFCLIELGHLREAEEAARKGCEINENDSWAHHALCHVLQTECRFKEAVKFMEEHSDSWDSCSSLRFSHNWWHVAVCYLEGGSHISKVEEVYDHQMWKELEKDDAVARDVYTDALGLLLRLDTRGKLDDGFQDRLEKLADSLTDKAMWYQDWLFDITTIWALSKVEKTSLAHELLEGLKSRTSAMNPKKQKLMQKAILLAEAVYEYGKGNYEIALELLGLDFDAANYKVIGGSGLQMDVFNEIWYKLLLLNGKSSTGTLLKNTIISIYFGYIFVFSATNSAFTTPEPAAIEVLEKVTKQRDGAPFLWRLLEESYSMEGKEKAGISAGKKAKALESSYFKSA	failed
MKVLILGGGYTGQRLAQLLAAQSIPVLATTRSGQWPLDEPCVTFDAGSTPLLLPDPAALAGVTHVLSTIPPLGDGGDPVLSTLLPTLQYLSLQWCGYLSTTGVYGDTQGAWVDEDSPLQSTNRRSQQRIAIEAQWLASGLPAHIFRLPGIYGPGRSSFDRLRRGDNQRLLKPGHVFCRIHVDDIAAALWASLQQPNPGRIYNVSDDFPCEPALLIEAAAQLMGVELPPPLPVDAVELSPMAASFWSECRRVRNDRLKQELGVQLRYPSYREGLAAIWAAELEHHHHHH	failed
MKVLRLGIVFQLLFVLLLTVGNFARIFIIDHYSVYPIAFFELFLGIGSLSCGVYGLIKTEKPILSLWLICFGLLICVFFIVVYLLPEGDIPPEITWFYSE	failed
MKVLSYLKNFYLFLAIGAIMQASENMGSQHQKTDERVIYLAGGCFWGLEAYMERIYGVIDASSGYANGKTSSTNYEKLHESDHAESVKVIYDPKKISLDKLLRYYFKVVDPVSVNKQGNDVGRQYRTGIYYVNSADKEVIDHALKALQKEVKGKIAIEVEPLKNYVRAEEYHQDYLKKHPSGYCHIDLKKADEVIVDDDKYTKPSDEVLKKKLTKLQYEVTQNKHTEKPFENEYYNKEEEGIYVDITTGEPLFSSADKYDSGCGWPSFSKPINKDVVKYEDDESLNRKRIEVLSRIGKAHLGHVFNDGPKELGGLRYCINSAALRFIPLKDMEKEGYGEFIPYIKKGELKKYINDKKSH	failed
MKVLVIGNGGREHALAWKAAQSPLVETVFVAPGNAGTALEPALQNVAIGVTDIPALLDFAQNEKIDLTIVGPEAPLVKGVVDTFRAAGLKIFGPTAGAAQLEGSKAFTKDFLARHKIPTAEYQNFTEVEPALAYLREKGAPIVIKADGLAAGKGVIVAMTLEEAEAAVHDMLAGNAFGDAGHRIVIEEFLDGEEASFIVMVDGEHVLPMATSQDHKRVGDKDTGPNTGGMGAYSPAPVVTDDVHQRTMERIIWPTVKGMAAEGNTYTGFLYAGLMIDKQGNPKVIEFNCRFGDPETQPIMLRMKSDLVELCLAACESKLDEKTSEWDERASLGVVMAAGGYPGDYRTGDVIHGLPLEEVAGGKVFHAGTKLADDEQVVTNGGRVLCVTALGHTVAEAQKRAYALMTDIHWDDCFCRKDIGWRAIEREQN	failed
MKVNVSCSSVQTTIDILEENQGEDESILTLGQLRDRIATDNDVDVETMKLLHRGKFLQGADDVSLSTLNFKENDKIIVMGGKNALVDDAGFKMLMQYEKHNLSNLQKAYDLNLRDVADLERGFLEKPKQVEMGKKLEKKVKYFNEEAERHLETLDGMNIITETTPENQAKRNREKRKTLVNGIQTLLNQNDALLRRLQEYQSVLNGDIPE	not failed
MKVSDILTVAIRLEEEGERFYRELSEHFNGEIKKTFLELADQERIHAEIFRKMSDQENWDEVDSYLAGYAFYEVFPDTSEILRRKDLTLKEVLDIAISVEKDSIILYYELKDGLVNSDAQKTVKKIIDQEKEHLRKLLEMKREST	not failed
MKVSVEIITGTFIDTDVSEDATVKQMKEKIAVEVKLPVTRLILVIGDEETRRLVMEDEDDMMLRDLGVGEDSHIYLFFKHPDLVSKEERSKGEDDDDPMEEVSSEAESGRGNEEEVEKAKIDGEEEDQAMKDEEEDRDVKVEEDEEEKEKEKDGEAKYVKEEAREVEEADNKQEN	failed
MKVTDVRLRKIQTDGRMKALVSITLDEAFVIHDLRVIEGNSGLFVAMPSKRTPDGEFRDIAHPINSDMRQEIQDAVMKVYDETD	not failed
MKVVPEKNAVRILWGRERGTRAMGAQRLLQELVEDKTRWMKWEGKRVELPDSPRSTFLLAFSPDRTLLASTHVNHNIYITEVKTGKCVHSLIGHRRTPWCVTFHPTISGLIASGCLDGEVRIWDLHGGSESWFTDSNNAIASLAFHPTAQLLLIATANEIHFWDWSRREPFAVVKTASEMERVRLVRFDPLGHYLLTAIVNPSNQQGDDEPEIPIDGTELSHYRQRALLQSQPVRRTPLLHNFLHMLSSRSSGIQVGEQSTVQDSATPSPPPPPPQPSTERPRTSAYIRLRQRVSYPTTVECCQHPGILCLCSRCAGTRVPSLLPHQDSVPPASARATTPSFSFVQTEPFHPPEQASSTQQDQGLLNRPSAFSTVQSSTAGNTLRNLSLGPTRRSLGGPLSSHPSRYHRELAPGLTGSEWTRTVLTLNSRSEVESMPPPRTSASSVSLLSVLRQQEGGSQASVYTSATEGRGFPSSGLATESDGGNGSSQNNSGNIRHELQCDLRRFFLEYDRLQELDQSLSGETPQTQQAQEMLNNNIESERPGPSHQPTPHSSENNSNLSRGHLNRCRACHNLLTFNNDTLRWERTTPNYSSGEASSSWHVSTTFEGMPPSGNQLPPLERTEGQMPNSSRLELSSSASSQEERTVGVAFNQETGHWERIYTQSSRSGTVSQEALHQDMPEESSEEDSLRRRLLESSLISLSRYDGAGSREHPIYPDPARLSPAAYYAQRMIQYLSRRDSIRQRSMRYQQNRLRSSTSSSSSDNQGPSVEGTDLEFEDFEDNGDRSRHRAPRNARMSAPSLGRFVPRRFLLPEYLPYAGIFHERGQPGLATHSSVNRVLAGAVIGDGQSAVASNIANTTYRLQWWDFTKFDLPEISNASVNVLVQNCKIYNDASCDISADGQLLAAFIPSSQRGFPDEGILAVYSLAPHNLGEMLYTKRFGKG	failed
MKWVTYRSDHGERTGVLSGDAIYAMPPDVSLLDLVGRGADGLRTAGERAVRSPAAVVALDEVTLAAPIPRPPSIRDSLCFLDHMRNCQEAMGGGRVLMDTWYRIPAFYFACPSTVLGPYDDAPTAPGSAWQDFELEIAAVIGTSGKDLTVEQAERSIIGYTIFNDWSARDLQMLEGQLRIGQAKGKDSGITLGPYLVTPDELEPYCRGGKLSLRVIALVNGTVIGSGSTAQMDWSFGEVIAYASRGVTLTPGDVFGSGTVPTCTLVEHLRPPESFPGWLHDGDVVTLQVEGLGETRQTVRTSGTPFPLALRPNPDAEPDRRGVNPAPTRVPFTRGLHEVADRVWAWTLPDGGYGFSNAGLVAGDGASLLVDTLFDLALTREMLAAMKPVTERAPITDALITHSNGDHTHGTQLLDRSVRIIAAKGTSEEIEHGPAPEMLARIQTADLGPVATRYLRDRFGHFDFSGIKLRNADLTFDRDLAIELGGRRVDLLNLGPAHTTADSVVHVADAGVLFAGDLLFIGCTPIVWAGPIANWVAACDAMIALDAPTVVPGHGPVTGPDGIRAVRGYLAHIAEQAEAAYRKGLSLPEAVETIDLGEYASWLDSERVVVNVYQRYRELDPDTPRQDLLALLVMQAEWAARHCT	failed
MKWYEQPLHTLSHAQWEALCDGCGQCCLNQLLDEEDNLYSTDVACRLLDTKTASCSDYAHRSERVPACVTLTPDNLDEVYFMPASCAYRLRAEGQPLPQWHPLRHEGSKEPMKKAGYHVAGHCVSEAKFKGDLEDRIVTWPLS	failed
MKYCTLDDLILSFGQDEIYRLIATDQEAEKALDDAQAEIDMYLSDRYALPVKSVPKSLNRIACDIAHYYLYNSVDEDSTVYLRYKHRIKQLSDVAAGKLSLGLYDKSDDATTDNQVVFIKSSKKVFAR	not failed
MKYIEPHFISFTQHTLKSQLIPKSFHGMKILQFSDLHLGYYFSLQHLSQVVSKINAVNPDIVLFTGDLIDNYQTYTDTPFVASILKNIQAPFGKFAIYGNHDHGGYGTEYYEHIMRESGFELLLNSKKRIRLMDNSEISIFGLDDILLGKPKIEKTLQHARQNTYNIVLVHEPDIAPQISKYPINLQLSGHSHGGQVQIPFLGAIITPSLAKDYIEGFYTMQDLTLYVNRGLGRTRVPFRFMSKPEITIFTLQHSLEHHHHHH	failed
MKYLAGIVTFNPNIERLDQNIRAIYPQVSHIYIVDNGSKNKEEISQLVADYNEEGHLTVDYLTENKGIAYALNCIGQFAVAQEFDWFLTLDQDSVVLGDLIDNYENYLHLPKVGMLSCLYQDMNRENLVMQEFDYKEIEECITSAALMKTSVFEETSGFAEEMFIDFVDSEMNYRLSEMGYKTYQVNFIGLLHEIGHSSRVKKFGHVFHVLNHSPFRKYYMIRNAIYIIKKYGKKKRYKYLVFMRNEFVRVLVAEEQKSKKIVAMIKGLKDGLLMKVDKYGKLEHHHHHH	not failed
MKYLHFTRPTIKVIFMINSIKTLLLIATLAILSACGWHFQQSVTMPSEWRTLALESDDSYNDFTVIMRRKLQENQVNVVNLEQNIPILRINKQITSDQVASIFKHGREAEKLLMLEVEATFRLANGESYPINAKVNRTFFDNARAALAKSEEREVIWNDMREQVARQLIVKIIALQNQIKRKLEHHHHHH	failed
MKYMIPDEEFIRREGVPITKEEIRAVSIGKLNLNKDDVVVDVGCGSGGMTVEIAKRCKFVYAIDYLDGAIEVTKQNLAKFNIKNCQIIKGRAEDVLDKLEFNKAFIGGTKNIEKIIEILDKKKINHIVANTIVLENAAKIINEFESRGYNVDAVNVFISYAKKIPSGHMFLAKNPITIIKAVR	not failed
MKYNKDGQTFLLVLDKGEDIVEVLTQFAMEQEMKFGSVSGIGACDNVTLIFYNLDTQKYESREVNEALELTSLLGNISHIDDKPFAHLHGTFGTRDFQTLSGHLTKAVVSATAEIVIQMTNLDVNRTHDEETGLNLLRP	failed
